From patent US20140370037A1 (published 2014)
Positions count from the first letter of the chain named.

T1: human DLL3 antigen (human, UniProt Q9NYJ7 27-492, limits assumed)
T1 construct: also called immobilized human DLL3; recombinant human DLL3
T1 sequence (looked up): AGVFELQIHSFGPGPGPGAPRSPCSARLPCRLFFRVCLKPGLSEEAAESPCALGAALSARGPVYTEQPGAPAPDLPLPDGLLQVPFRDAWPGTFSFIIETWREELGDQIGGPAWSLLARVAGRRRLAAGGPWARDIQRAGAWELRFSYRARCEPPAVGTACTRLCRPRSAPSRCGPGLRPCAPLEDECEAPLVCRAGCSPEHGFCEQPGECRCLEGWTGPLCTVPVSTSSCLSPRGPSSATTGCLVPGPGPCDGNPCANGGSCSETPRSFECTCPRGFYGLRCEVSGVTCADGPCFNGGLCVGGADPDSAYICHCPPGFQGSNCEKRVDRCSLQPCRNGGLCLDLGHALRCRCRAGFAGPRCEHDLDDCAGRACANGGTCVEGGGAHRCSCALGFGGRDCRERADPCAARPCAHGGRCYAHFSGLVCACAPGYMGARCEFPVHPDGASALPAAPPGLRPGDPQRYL

B1: SC16.142 (antibody, V domains shown)
VH: EVQLQQSGPELVKPGASVKISCKASGYTFTDYNMHWVKQSHGKSLEWIGFFYPYNGNTVYSQKFKSKATLTVDNSSSTAYMELRSLTSEDSAVYYCARLNWEGYWGQGTTLTVSS
VL: DIKMTQSPSSMYASLGERVTITCKASQDINNYLSWFQQKPGKSPKTLIYRANRLVDGVPSRFSGSGSGQDYSLTISSLEYEDMGIYYCLQYDEFPYTFGGGTKLEIKR
notes: murine mAb
B2: SC16.124 (antibody, V domains shown)
VH: EVQLQQSGPELVKPGASVKMSCKASGYTFTSYVMHWVKQKPGQGLEWIGYINPYNDGTKYNEKFKGKATLTSDKSSSTAYMELSSLTSEDSAVYYCARGALYYGNYLGYFDVWGAGTTVTVSS
VL: DIQMTQSPASQSASLGESVTITCLASQTIGTWLAWYQQKPGKSPQLLISAATSLADGVPSRFSGSGSGTKFSFKISSLQAEDFVSYYCQQLYSTPWTFGGGTKLEIK
notes: murine mAb
B3: SC16.132 (antibody, V domains shown)
VH: QVQLKESGPGLVAPSQSLSITCTVSGFSLTDYGVSWIRQPPGKGLEWLGVVWGGGSTYYNSALKSRLSITKDNSKSQVFLKMNSLQTDDTAMYYCAKQRGQYGAYWGQGTLVTVSA
VL: B2 VL with S49Y
notes: murine mAb
B4: SC16.138 (antibody, V domains shown)
VH: B3 VH with T70S
VL: B2 VL with S49Y, A50S
notes: murine mAb
B5: SC16.11 (antibody, V domains shown)
VH: QIQLVQSGPELKKPGETVKISCKASGYTFTDYSMHWVKQAPGKGLKWMGWINTETVEPTYADDFMGRFAFSLETSASTAFLQINNLENEDTATYFCARFGSYAMDYWGQGTSVTVSS
VL: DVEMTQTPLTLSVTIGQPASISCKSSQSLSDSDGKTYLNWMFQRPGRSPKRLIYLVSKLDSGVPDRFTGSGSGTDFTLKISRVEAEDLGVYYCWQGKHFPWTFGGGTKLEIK
notes: murine mAb
B6: SC16.122 (antibody, V domains shown)
VH: EVQLVESGGGLVKPGGSLKLSCAASGFTFSDYYMFWVRQTPEKRLEWVATISDGGSYTYFPDSVKGRFTISRDNAQNNLYLQMSSLKSEDTAMYYCARAGTLYAMDYWGQGTSVTVSS
VL: DIVMTQSQKFMSTSVGDRVSVTCKASQNVGTNVAWYQQKPGQSPKVLIYSASYRYSGVPDRFTGSGSGTDFTLTISNVQSEDLAEFFCQQYNSYPLTFGGGTKLEIK
notes: murine mAb
B7: SC16.135 (antibody, V domains shown)
VH: QVQLQQSGAELVRPGTSVKVSCKASGYAFTNYLIEWVKQRPGQGLEWIGVINPGSGGTNSNEKFKAKATLTADKSSSTAYMQLSSLTSADSAVYFCARSDYDYAFYAMDYWGQGTSVTVSS
VL: DIKMTQSPSSMYASLGERVTITCKASQDINRYLSWFQQKPGKSPKTLIYRANRLVDGVPSRFSGSGSGQDYSLTISSLEYEDMGIYYCLQYDEFPFTFGSGTKLEIK
notes: murine mAb
B8: SC16.141 (antibody, V domains shown)
VH: QVQLKQSGPGLVAPSQSLFITCTVSGFSLTSYEINWVRQPPGKGLEWLGVIWTGGSTNYNSALISRLSISKDNSKSLVFLKMNSLQTDDTAIYYCVRGVYAMDYWGQGTSVTVSS
VL: B7 VL with R31S
notes: murine mAb
B9: SC16.123 (antibody, V domains shown)
VH: QVALKESGPGILQPSQTLSLTCSFSGFSLSTSGMGVGWIRQPSGKGLEWLAHIWWDDVKRYNPALKSRLTISKDTSSSQVFLKIASVDTADTATYYCARMEDYGSSSYFDFWGHGTTLTVSS
VL: QIVLTQSPAIMSASLGERVTMTCTASSSVSSSYLHWYQQKPGSSPKLWIYSTSNLASGVPARFSGSGSGTSYSLTISSMETEDAATYYCHQYHRSPFTFGSGTKLEIK
notes: murine mAb
B10: SC16.130 (antibody, V domains shown)
VH: EVQLQQSGPELVKPGASVKMSCKASGYTFTSYVMHWVKQKPGQGLEWIGYINPYNDGTEYNEKFKGKATLTSDKSSSTAYMELSSLTSEDSAVYYCARGVYDGYSYFDYWGQGTTLTVSS
VL: DIQLTQSPASLSASVGETVTITCRASGSIHNYLAWYQQKQGKSPQLLVYNAKTLVDGVPSRFSGSGSGTQYSLKINSLQPEDFGYYYCQHFWTTPWTFGGGTKLEIK
notes: murine mAb
B11: SC16.136 (antibody, V domains shown)
VH: EFQLQQSGPELVKPGASVKMSCKASGYTFTSYVMHWVKQKPGQGLEWIGYINPYNDGTKYNEKFKGKATLTSDKSSSTAYMELSSLTSEDSAVYYCARDRSGYEDYYGMDYWGQGTSVTVSS
VL: B10 VL with L4M, S28N, Q45H, V55A, Y85S, T93S
notes: murine mAb
B12: SC16.118 (antibody, V domains shown)
VH: EVQLQQSGPDLVKPGASVKISCKASGYSFTGYYMHWVKQSHGKSLEWIGRVNPNNGGTSYNQKFKGKAILTADKSSSTAYMELRSLTSEDSAVYYCARGSYDYAEGWGQGTLVTVSA
VL: DIVLTQSPASLAVSLGQRATISCKASQSVDYDGDSYLTWYQQKPGQPPKLLIYAASNLESGIPARFSGSGSGTDFTLNIHPVEEEDAATYYCQQSNEDPYTFGGGTKLEIKR
notes: murine mAb
B13: SC16.134 (antibody, V domains shown)
VH: B12 VH with S44R, S59N, A72V, Y103N
VL: B12 VL with Y31H, D32A, L37M, T38N
notes: murine mAb
B14: SC16.13 (antibody, V domains shown)
VH: QVTLKESGPGILQPSQTLSLTCSFSGFSLSTSGMGVGWIRQPSGKGLEWLAHIWWDDVKRYNPALKSRLTISKDTSSSQVFLKIASVDTADTATYYCARIVSFDNDVVSAMDYWGQGTSVTVSS
VL: QIVLTQSPALVSASPGEKVTMTCSASSSVSYMYWYQQKPRSSPKPWIYLTSNLASGVPARFSGSGSGTSYSLTISSMEAEDAATYYCQQWRSNPFTFGSGTKLEIK
notes: murine mAb
B15: SC16.140 (antibody, V domains shown)
VH: QVQLQQSGPELVRPGASVKMSCKASGYTFTSYWMHWVKQRPGQGLEWIGMIDPSNSETRLNQKFKDKATLNVDKSSNTAYMQLSSLTSEDSAVYYCAVMDYYFDYWGQGTTLTVSS
VL: DIVLTQSLASLAVSLGQRATISCRASKSVSTSGYSYMHWYQQKPGQPPKLLIYLASNLESGVPARFSGSGSGTDFTLNIHPVEDEDAATYYCQHSRELPFTFGGGTKLEIKR
notes: murine mAb
B16: SC16.117 (antibody, V domains shown)
VH: QVQLKESGPGLVAPSQSLSIPCTVSGFSLTNYGVHWVRQPPGKGLEWLGVIWAGGITNYNSALMSRLSISEDNSKSQVFLKMNSLQTDDTAMYYCARNLGPYAMDYWGQGTSVTVSS
VL: DIQMNQSPSSLSASLGDTITITCHVSQNINVWLSWYQQKPGNIPKLLIQKASNLHTGVPSRFSGSGSGTGFTLTISSLQPEDIATYYCQQGQSYPFTFGSGTKLEIK
notes: murine mAb
B17: SC16.125 (antibody, V domains shown)
VH: DVQLQESGPDLVKPSQSLSLTCTVTGYSITSGYSWHWIRQFPGNKLEWMGYIHYSGSTNYNPSLKSRISITRDTSKNQFFLQFKSVTTEDSATYYCALEGNYDGFAYWGQGTLVTVS
VL: B16 VL with V25A, Q49Y, N53I, Y87S, F96Y, S100G
notes: murine mAb
B18: SC16.126 (antibody, V domains shown)
VH: QVQMKESGPGLVAPSQSLSITCTVSGSSLTNYGVHWVRQPPGKGLEWLGVIWAGGSTNYNSALMSRLSISKDNSKSQVFLKMNSLQTDDTAMYYCARDWEGWFAYWGQGTLVTVSA
VL: B16 VL with V25A, Q49Y
notes: murine mAb
B19: SC16.149 (antibody, V domains shown)
VH: B18 VH with M4L, T23A, S27F, N31S, Y32F, N60Y, K71I
VL: B16 VL with V25A, Q49Y, N53H, F62L, K103T
notes: murine mAb
B20: SC16.137 (antibody, V domains shown)
VH: EVQLVESGGDLVKPGGSLKLSCAASGFTFSSYGMSWVRQTPDKRLEWVATISSGGSYTYYPDSVKGRFTISRDNAKNTLYLQMSSLKSEDTAMYYCARRRADAMDYWGQGTSVTVSS
VL: QIVLTQSPAIMSASLGEEITLTCSASSSVSYMHWYQQKSGTSPKLLIYSTSNLASGVPSRFSGSGSGTFYSLTISSVEAEDAADYYCHQWSSYHTFGGGTKLEIKR
notes: murine mAb
B21: SC16.121 (antibody, V domains shown)
VH: EVQLVESGGGLVQPKGSLKLSCAASGFTFNTYAMNWVRQAPGKGLEWVARIRIKSNNYATYYADSVKDRFTISRDDSQNMLYLQMNNLKTEDTAVYYCVRQGYSYDWGPWFAYWGQGTLVTVSA
VL: QIVLTQSPAIMSASPGEKVTITCSASSSVSYMHWFQQKPGTSPKLWIYSTSNLASGVPARFSGSGSGTSYSLTISRMEAEDAATYYCQQRSSYPPTFGGGTKLEIKR
notes: murine mAb
B22: SC16.133 (antibody, V domains shown)
VH: QVQLKESGPGLVAPSQSLSITCTVSGFSLTNYAVHWVRQSPGKGLEWLGVIWSDGSTDYNAAFISRLSISKDNSKSQVFFKMNSLQADDTAMYYCARKKGGWFPWFAYWGQGTLVTVSA
VL: SIVMTQTPKFLLVSAGDRVTITCKASQSVSNDVAWYQQKPGQSPKLLIYCASNRYTGVPDRFTGSGYGTDFTFTISTVQAEDLAVYFCQQDYSSPLTFGAGTKLELK
notes: murine mAb

The binders below were run against T1, human DLL3 antigen (assay: ELISA or flow cytometry screen).

Binder	binding result
B1	binds
B2	binds
B3	binds
B4	binds
B5	binds
B6	binds
B7	binds
B8	binds
B9	binds
B10	binds
B11	binds
B12	binds
B13	binds
B14	binds
B15	binds
B16	binds
B17	binds
B18	binds
B19	binds
B20	binds
B21	binds
B22	binds
